Test results from US9549967B2, “Regulation of sodium channels by PLUNC proteins” (The University of North Carolina at Chapel Hill, priority 2009, dated 2017).

Biological target: T1, α, β and γ ENaC subunits (Rattus norvegicus, UniProt P37089+P37090+P37091)
T1 construct: expressed in transfected cells; host or cells: Xenopus oocytes (cRNA injection), lysates
T1 sequence (P37089 1-698): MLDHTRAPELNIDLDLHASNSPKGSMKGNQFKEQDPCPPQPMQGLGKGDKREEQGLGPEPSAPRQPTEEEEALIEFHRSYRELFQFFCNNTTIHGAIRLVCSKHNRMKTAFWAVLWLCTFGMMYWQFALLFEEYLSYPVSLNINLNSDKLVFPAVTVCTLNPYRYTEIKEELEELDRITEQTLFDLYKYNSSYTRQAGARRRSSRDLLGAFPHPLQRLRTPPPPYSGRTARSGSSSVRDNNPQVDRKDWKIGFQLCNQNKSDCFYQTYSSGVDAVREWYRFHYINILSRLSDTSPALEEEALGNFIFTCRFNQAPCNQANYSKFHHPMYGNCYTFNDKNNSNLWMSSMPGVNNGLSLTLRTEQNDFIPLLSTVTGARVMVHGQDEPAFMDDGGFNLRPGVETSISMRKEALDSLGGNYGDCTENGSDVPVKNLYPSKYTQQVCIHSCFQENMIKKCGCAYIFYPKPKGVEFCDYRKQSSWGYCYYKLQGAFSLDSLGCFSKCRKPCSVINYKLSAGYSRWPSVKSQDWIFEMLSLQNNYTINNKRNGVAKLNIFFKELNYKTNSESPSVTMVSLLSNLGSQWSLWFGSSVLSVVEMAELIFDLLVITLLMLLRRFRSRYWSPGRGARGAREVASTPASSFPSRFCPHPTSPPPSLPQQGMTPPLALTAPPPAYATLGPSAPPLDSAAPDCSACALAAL
T1 sequence (P37090 1-638): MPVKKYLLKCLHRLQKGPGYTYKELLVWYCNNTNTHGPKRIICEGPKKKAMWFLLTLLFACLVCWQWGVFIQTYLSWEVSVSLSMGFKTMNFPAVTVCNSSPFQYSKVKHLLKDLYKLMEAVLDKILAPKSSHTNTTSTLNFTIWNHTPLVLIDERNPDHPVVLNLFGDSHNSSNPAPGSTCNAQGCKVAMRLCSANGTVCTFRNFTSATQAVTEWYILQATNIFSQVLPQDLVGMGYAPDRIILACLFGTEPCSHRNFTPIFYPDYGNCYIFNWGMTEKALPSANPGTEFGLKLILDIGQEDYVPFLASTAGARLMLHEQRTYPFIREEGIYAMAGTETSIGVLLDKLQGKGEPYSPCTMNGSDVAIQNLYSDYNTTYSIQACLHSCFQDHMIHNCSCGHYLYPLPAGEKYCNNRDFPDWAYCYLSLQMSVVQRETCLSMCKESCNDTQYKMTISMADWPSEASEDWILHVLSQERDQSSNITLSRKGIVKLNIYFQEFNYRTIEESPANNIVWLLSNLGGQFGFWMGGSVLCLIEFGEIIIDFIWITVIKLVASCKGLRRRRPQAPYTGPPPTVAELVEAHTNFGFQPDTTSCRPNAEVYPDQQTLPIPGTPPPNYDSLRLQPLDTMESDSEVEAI
T1 sequence (P37091 1-650): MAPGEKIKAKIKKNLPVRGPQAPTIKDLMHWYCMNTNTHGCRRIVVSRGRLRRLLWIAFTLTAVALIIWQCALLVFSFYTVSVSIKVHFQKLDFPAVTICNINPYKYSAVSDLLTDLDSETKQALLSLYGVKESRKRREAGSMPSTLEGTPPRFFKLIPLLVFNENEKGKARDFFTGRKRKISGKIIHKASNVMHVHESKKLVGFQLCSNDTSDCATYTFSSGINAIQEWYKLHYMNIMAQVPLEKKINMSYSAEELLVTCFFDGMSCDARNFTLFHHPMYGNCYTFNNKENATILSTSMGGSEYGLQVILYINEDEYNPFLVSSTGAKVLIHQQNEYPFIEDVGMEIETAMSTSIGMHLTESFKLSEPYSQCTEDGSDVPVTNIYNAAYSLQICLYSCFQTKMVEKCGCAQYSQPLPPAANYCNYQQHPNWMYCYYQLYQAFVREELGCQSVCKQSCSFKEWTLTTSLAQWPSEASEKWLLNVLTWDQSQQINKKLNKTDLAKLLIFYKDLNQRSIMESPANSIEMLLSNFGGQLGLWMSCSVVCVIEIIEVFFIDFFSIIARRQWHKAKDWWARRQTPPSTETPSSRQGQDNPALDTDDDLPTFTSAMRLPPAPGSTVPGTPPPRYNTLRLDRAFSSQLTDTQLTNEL
Experiment: Co-immunoprecipitation of V5-tagged SPLUNC1 with HA-tagged ENaC subunits from Xenopus oocytes
Format: binding
Settings: anti-HA immunoprecipitation, probed for V5-tagged SPLUNC1
Protocol: Co-Immunoprecipitation: Xenopus oocytes were injected with either HA-N-Terminus or V5-C-Terminus (HA-NT/V5-CT) tagged subunits in combination with wild type (WT) untagged rat αβγENaC subunits (0.3 ng cRNA each) with or without V5-tagged SPLUNC1 and CAP2 (1 ng cRNA each). After 24 h, 40 eggs per experimental condition were lysed with buffer containing (in mM): 20 Tris, 50 NaCl, 50 NaF, 10 β-glycerophosphate, 5 Na4P2O7 pyrophosphate, 1 EDTA, pH 7.5 and protease inhibitors (complete, Roche), aprotinin (Sigma). Cell lysates were prepared by passing the eggs through a 27 G1/2 needle twice and by centrifugation at 3,600 rpm for 10 minutes at 4° C. Supernatants were transferred to new tubes and samples were spun at 14,000 rpm for 20 minutes at 4° C. Supernatants were discarded and pellets were solubilized in (mM) 50 Tris, 100 NaCl, 0.1% Triton X-100, 0.1% NP-40, 20 NaF, 10 Na4P2O7, 10 EDTA+protease inhibitor cocktail (Sigma), pH 7.5. Total inputs were taken from whole cell samples representing 4% of total protein. Solubilized proteins were incubated with 50 μl of protein A and 5 μl of anti-HA antibody (Covance) overnight while tumbling at 4° C. Samples were washed three times with (mM) 150 NaCl 50 Tris pH 7.5 buffer. Laemmli buffer was added and samples were loaded on a 15% gradient Tris-glycine gel after incubation for 10 minutes at 96° C. […]

B1: SPLUNC1: human SPLUNC1, 256 amino acid secreted PLUNC protein (SEQ ID NO:1); rSPLUNC1 = V5/6His-tagged protein purified from HEK293 media (protein, listed as Homo sapiens)
chain: MFQTGGLIVFYGLLAQTMAQFGGLPVPLDQTLPLNVNPALPLSPTGLAGSLTNALSNGLLSGGLLGILENLPLLDILKPGGGTSGGLLGGLLGKVTSVIPGLNNIIDIKVTDPQLLELGLVQSPDGHRLYVTIPLGIKLQVNTPLVGASLLRLAVKLDITAEILAVRDKQERIHLVLGDCTHSPGSLQISLLDGLGPLPIQGLLDSLTGILNKVLPELVQGNVCPLVNEVLRGLDITLVHDIVNMLIHGLQFVIKV
modifications: V5/6His tag
notes: rSPLUNC1 = V5/6His-tagged protein purified from HEK293 media
  binding to ENaC subunits (co-immunoprecipitation): bound to all three ENaC subunits
